One data set concerns the target T1, lysosomal fucosidase (Homo sapiens, UniProt P04066).
T1 construct: Fucosidase activity in 20 μL of each lysate sample was measured; endogenous in cells; host or cells: HepG2
T1 sequence (P04066 32-466): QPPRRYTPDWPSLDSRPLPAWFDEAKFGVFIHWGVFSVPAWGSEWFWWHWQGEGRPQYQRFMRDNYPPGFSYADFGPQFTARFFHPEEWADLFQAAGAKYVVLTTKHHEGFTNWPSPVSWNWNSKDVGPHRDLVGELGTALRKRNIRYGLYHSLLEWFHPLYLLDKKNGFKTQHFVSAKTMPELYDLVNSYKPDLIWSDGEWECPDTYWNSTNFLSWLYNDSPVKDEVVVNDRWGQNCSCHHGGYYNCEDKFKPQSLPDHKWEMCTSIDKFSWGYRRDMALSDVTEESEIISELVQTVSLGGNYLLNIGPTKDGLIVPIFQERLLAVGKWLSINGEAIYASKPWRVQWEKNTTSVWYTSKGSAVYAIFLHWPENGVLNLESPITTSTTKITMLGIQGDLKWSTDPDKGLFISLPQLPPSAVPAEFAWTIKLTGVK
Kind of data set: fucosidase activity in lysates of treated HepG2 cells (4-MU-fucopyranoside). The note with it: 72 hours, versus buffer. The data set is classed as cell-based.

For data set [1], the target named is T2, human liver alpha-L-fucosidase (Homo sapiens, UniProt P04066).
T2 sequence (P04066 32-466): T1 sequence (P04066 32-466)
To be noted: ref [12]; cited from earlier work.

Another data set addresses T3, LRP1 (Homo sapiens, UniProt Q07954).
T3 sequence (Q07954 786-1165 limits assumed): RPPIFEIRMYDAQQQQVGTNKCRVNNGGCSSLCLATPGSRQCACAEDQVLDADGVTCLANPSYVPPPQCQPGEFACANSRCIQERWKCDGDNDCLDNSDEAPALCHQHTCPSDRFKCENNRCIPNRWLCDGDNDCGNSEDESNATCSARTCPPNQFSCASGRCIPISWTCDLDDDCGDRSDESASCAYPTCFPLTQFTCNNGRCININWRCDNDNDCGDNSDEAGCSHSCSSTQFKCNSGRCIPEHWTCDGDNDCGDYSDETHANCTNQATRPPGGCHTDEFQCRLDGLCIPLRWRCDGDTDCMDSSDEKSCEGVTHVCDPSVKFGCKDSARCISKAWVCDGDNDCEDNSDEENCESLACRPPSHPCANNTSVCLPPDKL
The note with it: read-out: affinity for LRP1; cited from earlier work.

The conditions of data set [2]: cited from earlier work.
For data set [3] the following is noted: intravenously administered, rodent and feline species; cited from earlier work.

Usually inhibition stands for the percentage by which the read-out fell short of the control. Higher therefore signals strong suppression.

Bridge positions count the residues as written; N and C are the ends. Ends that are not written are not given here.

Protocol for lysosomal fucosidase: HepG2 human hepatocellular carcinoma cells were seeded in 6-well tissue culture plates at 4×10^5 per well. […] Cells were then washed with cold PBS, scraped into a microfuge tube, pelleted and lysed. Total protein concentration was determined by Bradford assay for each sample and lysate volumes adjusted to 0.3 mg/mL. Fucosidase activity in 20 μL of each lysate sample was measured by adding 100 μL of 0.5 mM 4-MU-fucopyranoside with subsequent incubation at 37° C. for 30 minutes. Reactions were quenched with 130 μL of 600 mM citrate/carbonate buffer at pH 9. Released 4-MU was assayed in a fluorescence microplate reader (see Example 1 above). […] Duplicate sample activity values were averaged and plotted.

Molecule `C[C@@H]1NC[C@@H](O)[C@H](O)[C@@H]1O` [L-deoxyfuconojirimycin] showed an inhibition at 30 µM at lysosomal fucosidase of more than 50%.

Turning to `CCCCN1C[C@H](O)[C@@H](O)[C@H](O)[C@H](C(=O)O)C1` [Faz, (3R,4R,5S,6S)-1-butyl-4,5,6-trihydroxyazepane-3-carboxylic acid], the “potency of fucosidase inhibition” value in data set [1] is on record as “low nanomolar range”.

As for “mRAP14c: RAP residues 250-309 with substitutions F250C, L308G and Q309C (CEAKIEKHNHYQKQLEIAHEKLRHAESVGDGERVSRSREKHALLEGRTKELGYTVKKHGC; disulfide 1-60 (inferred))”, the Kd in the data set with LRP1 is approximately 21 nM.

“RAP: mature receptor associated protein, 323 amino acid peptide, SEQ ID NO: 1”: the circulating half-life entry in data set [2] (injected RAP, intravenous) is “less than a minute”. In data set [2] (intravenous bolus injection of 30 picomoles, within 10 minutes), the “exogenous RAP accumulating in the liver” value is “over 70%”. Further, the “accumulation in heart, brain, muscle or kidney” value in data set [2] (intravenous) is < 1 % of injected dose. Further, the toxicity entry in data set [3] is given as “no measurable toxicity”.

B1: mRAPc: RAP d3 with the modifications A242G, R314G, E241C and I315C (peptide)
chain: CGFREELKHFEAKIEKHNHYQKQLEIAHEKLRHAESVGDGERVSRSREKHALLEGRTKELGYTVKKHLQDLSGGC
As for B1, the Kd with LRP1 was approximately 10 nM.

These data come from patent US20110189084A1, “Method for Treating Liver Disorders with Receptor Associated Protein (RAP) Peptide-Fucosidase Inhibitor Conjugates” (RAPTOR PHARMACEUTICAL INC., priority 2010, published 2011).
